Key:
prestin [1] = biological target: T1, prestin (Meriones unguiculatus, UniProt Q9JKQ2)
T1 sequence (Q9JKQ2 1-744): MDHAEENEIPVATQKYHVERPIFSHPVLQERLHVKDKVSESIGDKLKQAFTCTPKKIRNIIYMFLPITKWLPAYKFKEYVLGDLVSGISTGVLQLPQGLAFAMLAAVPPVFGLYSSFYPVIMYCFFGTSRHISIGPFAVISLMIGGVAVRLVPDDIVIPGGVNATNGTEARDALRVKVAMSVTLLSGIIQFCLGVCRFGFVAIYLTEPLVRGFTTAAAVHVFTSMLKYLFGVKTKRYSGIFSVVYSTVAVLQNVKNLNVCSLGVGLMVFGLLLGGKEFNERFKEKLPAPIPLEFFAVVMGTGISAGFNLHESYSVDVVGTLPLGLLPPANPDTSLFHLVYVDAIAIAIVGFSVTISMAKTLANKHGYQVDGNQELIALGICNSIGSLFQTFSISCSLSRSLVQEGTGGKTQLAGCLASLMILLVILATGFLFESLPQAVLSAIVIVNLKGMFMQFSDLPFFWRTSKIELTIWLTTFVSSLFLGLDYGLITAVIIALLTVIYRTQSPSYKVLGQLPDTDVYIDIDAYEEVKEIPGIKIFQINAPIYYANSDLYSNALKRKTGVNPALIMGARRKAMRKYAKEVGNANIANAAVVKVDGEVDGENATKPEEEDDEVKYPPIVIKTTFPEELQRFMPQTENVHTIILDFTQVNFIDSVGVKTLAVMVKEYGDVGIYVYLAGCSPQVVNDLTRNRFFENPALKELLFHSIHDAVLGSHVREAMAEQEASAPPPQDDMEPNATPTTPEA
Protocol: (§1) TSA201 cells, clones of human embryonic kidney 293 cells that express the simian virus 40 (SV40) large T-antigen in a stable manner, were cultured in DMEM with 5% fetal calf serum, 100 units of penicillin per millilter, and 100 micrograms of streptomycin per milliliters. Cells were plated for 24 hours before calcium phosphate transfection. The transfection reaction mixture contained:
(§2) a) control plasmid, pcDNA3.1; b) 2 micrograms of Pres cDNA plasmid; c) 2 micrograms of Pres cDNA plasmid plus 0.2 micrograms of green fluorescent protein (GFP) plasmid as transfection marker; or d) 2 micrograms of pendrin cDNA plasmid plus 0.2 micrograms GFP plasmid.
(§3) After 24 hours the transfected cells were used for electrophysiological and physical measurements.
Whole-cell voltage-clamp recordings were made with an Axopatch™ 200B amplifier (Axon Instruments, Foster City, Calif.) Recording pipettes had open tip resistances of 2-3 megaohms and were filled with internal solution containing 140 millimolar CsCl, 2 millimolar MgCl2, 10 millimolar EGTA, and 10 millimolar HEPES at pH 7.2. The external solution contained: 120 millimolar NaCl, 20 millimolar TEA-Cl, 2 millimolar CoCl2, 2 millimolar MgCl2, 10 millimolar HEPES, and 5 millimolar glucose at pH 7.2. Osmolarity was adjusted to 300 milliosmolar per liter with glucose. Capacitive currents were filtered at 5 kilohertz and digitized at 50 kilohertz using pClamp 7.0 software (Axon Instruments).
Voltage-dependent capacitance was measured using two methods. First, a standard P/4 linear subtraction procedure was employed to detect the presence of nonlinear charge movement. After nonlinear transient current was detected, a stair-step voltage protocol was used to obtain the parameters of charge movement. For each voltage step, the measured membrane capacitance (Cm) was plotted as a function of membfane voltage (Vm) and fitted with the derivative of a Boltzmann function: [formula] […]

prestin [2] = biological target: T1, prestin; settings: 10 millimolar in external bathing solution, FIG. 6C
Protocol: as §1, §2, §3
TSA201 cells were drawn into a microchamber with gentle suction (FIG. 6A). The microchamber was mounted on a three-dimensional micromanipulator attached to the stage of a Zeiss inverted microscope. […] The command voltage, delivered between the electrolyte solutions (L15, Gibco BRL) surrounding and filling the microchamber, produces different voltage drops on the included and excluded cell membrane segments, determined by the electrical voltage-divider effect of these membranes. During motility measurements, the location of the cell within the slit was monitored via a video camera placed behind the slit. […]

TSA201 cells [3] = test: Electromotility conveyed to transfected TSA201 cells (microchamber); assay type: cell-based, human; settings: cells drawn into microchamber, 200 Hertz sinusoid
From the text: A change of photocurrent signified cell extension or contraction.

TSA201 cells [4] = test: Nonlinear capacitance / charge movement conveyed to transiently transfected TSA201 cells; assay type: cell-based, human; parameters: average charge density: unit not given here; settings: for nonlinear capacitance: co-transfected with GFP
Protocol: The transfection reaction mixture contained:
Voltage-dependent capacitance was measured using two methods.
To test the sensor-motor function of prestin, voltage-dependent charge movement was measured in TSA201 cells after transient transfection of unmodified, native Pres cDNA. A second plasmid (pEGFP-N2) containing GFP cDNA was used as an independent marker for successful transfection of the cells. Transfection efficiency was 30-40% as judged from the fluorescence of GFP in transfected cells. […] In experiments conducted on cells co-transfected with prestin and GFP cDNA, transient capacitive currents were obtained from 91.8% of the GFP positive cells. […] The capacitive currents were directed towards the outside as the membrane potential was depolarized and toward the inside as it was hyperpolarized. Charges transferred at command onset and offset were approximately equal. The decay of transient currents was rapid (100-200 microseconds) and could be well-fitted with a single exponential. The voltage protocol used to estimate membrane capacitance and charge transfer across the membrane was an ascending stair-step voltage waveform (FIG. 5B). The membrane capacitance was fitted to the derivative of a first-order Boltzmann equation (FIG. 5C). In a group of seven cells, these curve-fits yielded values of Qmax=1.76±0.20 pC, V1/2=−57.30 ±2.98 mV, 1/a˜=kT/ze=28.00±2.13 mV, and Clin=20.50±2.65 pF, respectively (mean±SEM). The valence can be calculated from a, z=0.91. The average charge density, a possible measure of transiently transfected motor protein density in TSA201 cells, was […]. The numerical values that characterize the charge movement (V1/2, z) are quite similar to those obtained for OHCs. The maximum charge and charge density are less in the transfected cells, even though the linear capacitance is about the same as that of an average OHC. […]

[5] = Boltzmann fit, seven cells, mean±SEM

Molecule: O=C([O-])c1ccccc1O.[Na+] [Sodium salicylate, sodium salicylate]
- effect on charge movement (prestin [1]): reversibly blocks charge movement
- transient currents after recovery, % of control (prestin [1]; 3 cells, after 2-5 minutes of washing in normal extracellular solution without sodium salicylate): 88.4±8.8 % of control
- transient currents, % of control (prestin [1]; 10 millimolar sodium salicylate applied locally, mean±SEM): 15.5±2.9 % of control
- effect on electromotile response (prestin [2]): reversible decrease in the electromotile response

B1: prestin: gerbil outer hair cell motor protein, 744 amino acids, 81.4 kiloDaltons, SEQ ID NO:1, expressed from Pres cDNA (protein, listed as Meriones unguiculatus)
chain: MDHAEENEIPVATQKYHVERPIFSHPVLQERLHVKDKVSESIGDKLKQAFTCTPKKIRNIIYMFLPITKWLPAYKFKEYVLGDLVSGISTGVLQLPQGLAFAMLAAVPPVFGLYSSFYPVIMYCFFGTSRHISIGPFAVISLMIGGVAVRLVPDDIVIPGGVNATNGTEARDALRVKVAMSVTLLSGIIQFCLGVCRFGFVAIYLTEPLVRGFTTAAAVHVFTSMLKYLFGVKTKRYSGIFSVVYSTVAVLQNVKNLNVCSLGVGLMVFGLLLGGKEFNERFKEKLPAPIPLEFFAVVMGTGISAGFNLHESYSVDVVGTLPLGLLPPANPDTSLFHLVYVDAIAIAIVGFSVTISMAKTLANKHGYQVDGNQELIALGICNSIGSLFQTFSISCSLSRSLVQEGTGGKTQLAGCLASLMILLVILATGFLFESLPQAVLSAIVIVNLKGMFMQFSDLPFFWRTSKIELTIWLTTFVSSLFLGLDYGLITAVIIALLTVIYRTQSPSYKVLGQLPDTDVYIDIDAYEEVKEIPGIKIFQINAPIYYANSDLYSNALKRKTGVNPALIMGARRKAMRKYAKEVGNANIANAAVVKVDGEVDGENATKPEEEDDEVKYPPIVIKTTFPEELQRFMPQTENVHTIILDFTQVNFIDSVGVKTLAVMVKEYGDVGIYVYLAGCSPQVVNDLTRNRFFENPALKELLFHSIHDAVLGSHVREAMAEQEASAPPPQDDMEPNATPTTPEA
- cells tested showing electromotility (TSA201 cells [3]): about 22%
- 1/a = kT/ze, slope factor (TSA201 cells [4]; [5]): 28.00±2.13 mV
- Qmax, maximum charge transfer (TSA201 cells [4]; [5]): 1.76±0.20 pC
- V1/2, voltage at which the maximum charge is equally distributed (TSA201 cells [4]; [5]): −57.30 ±2.98 mV
- valence z (TSA201 cells [4]; calculated from a): 0.91
- cells displaying transient capacitive currents (TSA201 cells [4]; cells transfected with Pres alone): 36.8%
- GFP positive cells displaying transient capacitive currents (TSA201 cells [4]; co-transfected with prestin and GFP cDNA): 91.8%
- decay of transient currents (TSA201 cells [4]; single exponential): 100-200 microseconds
- average charge density (TSA201 cells [4]; transiently transfected TSA201 cells): 5360

B2: human pendrin: chloride-iodide transport protein homologous to prestin, expressed from cDNA as specificity control (protein, UniProt O43511 1-780, looked up)
Pendrin: MAAPGGRSEPPQLPEYSCSYMVSRPVYSELAFQQQHERRLQERKTLRESLAKCCSCSRKRAFGVLKTLVPILEWLPKYRVKEWLLSDVISGVSTGLVATLQGMAYALLAAVPVGYGLYSAFFPILTYFIFGTSRHISVGPFPVVSLMVGSVVLSMAPDEHFLVSSSNGTVLNTTMIDTAARDTARVLIASALTLLVGIIQLIFGGLQIGFIVRYLADPLVGGFTTAAAFQVLVSQLKIVLNVSTKNYNGVLSIIYTLVEIFQNIGDTNLADFTAGLLTIVVCMAVKELNDRFRHKIPVPIPIEVIVTIIATAISYGANLEKNYNAGIVKSIPRGFLPPELPPVSLFSEMLAASFSIAVVAYAIAVSVGKVYATKYDYTIDGNQEFIAFGISNIFSGFFSCFVATTALSRTAVQESTGGKTQVAGIISAAIVMIAILALGKLLEPLQKSVLAAVVIANLKGMFMQLCDIPRLWRQNKIDAVIWVFTCIVSIILGLDLGLLAGLIFGLLTVVLRVQFPSWNGLGSIPSTDIYKSTKNYKNIEEPQGVKILRFSSPIFYGNVDGFKKCIKSTVGFDAIRVYNKRLKALRKIQKLIKSGQLRATKNGIISDAVSTNNAFEPDEDIEDLEELDIPTKEIEIQVDWNSELPVKVNVPKVPIHSLVLDCGAISFLDVVGVRSLRVIVKEFQRIDVNVYFASLQDYVIEKLEQCGFFDDNIRKDTFFLTVHDAILYLQNQVKSQEGQGSILETITLIQDCKDTLELIETELTEEELDVQDEAMRTLAS
- nonlinear capacitance (TSA201 cells [4]): None of the GFP-positive cells demonstrated nonlinear capacitance

B3: N-tagged prestin: full-length prestin with an Xpress epitope located upstream and in-frame (protein, UniProt P58743 1-744, looked up)
chain: MDHAEENEILAATQRYYVERPIFSHPVLQERLHTKDKVPDSIADKLKQAFTCTPKKIRNIIYMFLPITKWLPAYKFKEYVLGDLVSGISTGVLQLPQGLAFAMLAAVPPIFGLYSSFYPVIMYCFLGTSRHISIGPFAVISLMIGGVAVRLVPDDIVIPGGVNATNGTEARDALRVKVAMSVTLLSGIIQFCLGVCRFGFVAIYLTEPLVRGFTTAAAVHVFTSMLKYLFGVKTKRYSGIFSVVYSTVAVLQNVKNLNVCSLGVGLMVFGLLLGGKEFNERFKEKLPAPIPLEFFAVVMGTGISAGFNLKESYNVDVVGTLPLGLLPPANPDTSLFHLVYVDAIAIAIVGFSVTISMAKTLANKHGYQVDGNQELIALGLCNSIGSLFQTFSISCSLSRSLVQEGTGGKTQLAGCLASLMILLVILATGFLFESLPQAVLSAIVIVNLKGMFMQFSDLPFFWRTSKIELTIWLTTFVSSLFLGLDYGLITAVIIALLTVIYRTQSPSYKVLGKLPETDVYIDIDAYEEVKEIPGIKIFQINAPIYYANSDLYSNALKRKTGVNPAVIMGARRKAMRKYAKEVGNANMANATVVKADAEVDGEDATKPEEEDGEVKYPPIVIKSTFPEEMQRFMPPGDNVHTVILDFTQVNFIDSVGVKTLAGIVKEYGDVGIYVYLAGCSAQVVNDLTRNRFFENPALWELLFHSIHDAVLGSQLREALAEQEASAPPSQEDLEPNATPATPEA
modifications: full-length N-terminal Xpress tag
- nonlinear capacitance (TSA201 cells [4]): typical nonlinear capacitance curve is observed

B4: C-tagged prestin: full-length prestin tagged at the C-terminus with a V5 epitope (protein, UniProt P58743 1-744, looked up)
chain: MDHAEENEILAATQRYYVERPIFSHPVLQERLHTKDKVPDSIADKLKQAFTCTPKKIRNIIYMFLPITKWLPAYKFKEYVLGDLVSGISTGVLQLPQGLAFAMLAAVPPIFGLYSSFYPVIMYCFLGTSRHISIGPFAVISLMIGGVAVRLVPDDIVIPGGVNATNGTEARDALRVKVAMSVTLLSGIIQFCLGVCRFGFVAIYLTEPLVRGFTTAAAVHVFTSMLKYLFGVKTKRYSGIFSVVYSTVAVLQNVKNLNVCSLGVGLMVFGLLLGGKEFNERFKEKLPAPIPLEFFAVVMGTGISAGFNLKESYNVDVVGTLPLGLLPPANPDTSLFHLVYVDAIAIAIVGFSVTISMAKTLANKHGYQVDGNQELIALGLCNSIGSLFQTFSISCSLSRSLVQEGTGGKTQLAGCLASLMILLVILATGFLFESLPQAVLSAIVIVNLKGMFMQFSDLPFFWRTSKIELTIWLTTFVSSLFLGLDYGLITAVIIALLTVIYRTQSPSYKVLGKLPETDVYIDIDAYEEVKEIPGIKIFQINAPIYYANSDLYSNALKRKTGVNPAVIMGARRKAMRKYAKEVGNANMANATVVKADAEVDGEDATKPEEEDGEVKYPPIVIKSTFPEEMQRFMPPGDNVHTVILDFTQVNFIDSVGVKTLAGIVKEYGDVGIYVYLAGCSAQVVNDLTRNRFFENPALWELLFHSIHDAVLGSQLREALAEQEASAPPSQEDLEPNATPATPEA
modifications: full-length C-terminal V5 tag
- nonlinear capacitance (TSA201 cells [4]): typical nonlinear capacitance curve is observed

— patent US6602992B1, “Mammalian prestin polynucleotides” (Northwestern University, priority 2000, dated 2003)
